In doi:10.1101/695700:

Target: complement C3
Assay: SPR

Kd: 360 nM
B1: recombinant HC1 (rHC1), wild type; heavy chain 1 of inter-α-inhibitor (natural protein)
chain: SKSSEKRQAVDTAVDGVFIRSLKVNCKVTSRFAHYVVTSQVVNTANEAREVAFDLEIPKTAFISDFAVTADGNAFIGDIKDKVTAWKQYRKAAISGENAGLVRASGRTMEQFTIHLTVNPQSKVTFQLTYEEVLKRNHMQYEIVIKVKPKQLVHHFEIDVDIFEPQGISKLDAQASFLPKELAAQTIKKSFSGKKGHVLFRPTVSQQQSCPTCSTSLLNGHFKVTYDVSRDKICDLLVANNHFAHFFAPQNLTNMNKNVVFVIDISGSMRGQKVKQTKEALLKILGDMQPGDYFDLVLFGTRVQSWKGSLVQASEANLQAAQDFVRGFSLDEATNLNGGLLRGIEILNQVQESLPELSNHASILIMLTDGDPTEGVTDRSQILKNVRNAIRGRFPLYNLGFGHNVDFNFLEVMSMENNGRAQRIYEDHDATQQLQGFYSQVAKPLLVDVDLQYPQDAVLALTQNHHKQYYEGSEIVVAGRIADNKQSSFKADVQAHGEGQEFSITCLVDEEEMKKLLRERGHMLENHVERLWAYLTIQELLAKRMKVDREERANLSSQALQMSLDYGFVTPLTSMSIRGMADQDGLKPTIDKPSEDSPPLEMLGPRRTFVLSALQPSPTHSSSNTQRLPDRVTGVDTD
